Data set [1] concerns the target T1, Fur (ferric uptake regulator) (Staphylococcus aureus) (UniProt A0A0H2XGT2).
T1 sequence: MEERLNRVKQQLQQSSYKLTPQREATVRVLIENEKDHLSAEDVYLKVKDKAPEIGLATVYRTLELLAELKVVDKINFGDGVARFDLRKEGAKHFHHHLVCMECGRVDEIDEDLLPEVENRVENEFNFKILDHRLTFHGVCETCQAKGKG
Nature of the data set: EMSA.

Data set [2] addresses T2, purified S. aureus Fur (S. aureus) (UniProt P0A032).
T2 sequence: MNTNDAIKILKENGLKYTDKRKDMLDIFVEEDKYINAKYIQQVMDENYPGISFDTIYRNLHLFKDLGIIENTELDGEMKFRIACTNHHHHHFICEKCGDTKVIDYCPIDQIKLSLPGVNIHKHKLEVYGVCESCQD

The values that follow come from article PMC11559061.

“CTTTAGTAAAATCATAAATAATAATGATTATCATTGTCAATATTTATTTTATAATCAATTTATTATTGTTATACGAAAATAGATGTGCTAGTATAATTGATAACCATTATCAATTGCAATGGTTAATC (double strand) [isdC operator (two Fur boxes), 128 bp PCR product]”: the binding result in data set [1] is “binds”.

B1: purified S. aureus Fpa (natural protein)
chain: MAKQATMKNAALKQLTKDADEILHLIKVQLDNLTLPSCPLYEEVLDTQMFGLQKEVDFAVKLGLVDREDGKQIMLRLEKELSKLHEAFTLV
B1: the EMSA: association of Fur (40 µM) with isdC operator DNA, Fpa titrated in (0-40 µM by the legend, 0-80 µM by the methods), with 100 µM MnCl2 in data set [2] worked out at 20 µM.
